Results reported in US5750349.

Experiments:
[1] = molecular target: β-amyloid (1-40); test: competitive EIA with β-Gal-labeled βA(1-40); unlabeled peptide varied
[2] = molecular target: β-amyloid (1-40); test: sandwich EIA, solid phase BAN-052a, label BA-27a-HRP
[3] = molecular target: β-amyloid (1-40); test: sandwich EIA, solid phase BAN-50a, label BA-27a-HRP (1500-fold dilution)
[4] = molecular target: β-amyloid (1-40); test: sandwich EIA, solid phase BAN-50a, label BA-27a-HRP (1000-fold dilution)
[5] = molecular target: β-amyloid (1-39); test: sandwich EIA, solid phase BAN-50a, label BA-27a-HRP
[6] = molecular target: β-amyloid (1-42); test: as above
[7] = molecular target: β-amyloid (1-38); test: as above
[8] = molecular target: β-amyloid (1-39); test: sandwich EIA, solid phase BAN-50a, label BA-27a-HRP; against β-amyloid (1-40)
[9] = molecular target: β-amyloid (1-42); test: as above
[10] = molecular target: β-amyloid (1-38); test: as above
[11] = molecular target: β-amyloid (1-40); test: sandwich EIA, solid phase BA-27a, label BAN-052a-HRP

IC50 [1]: 200 nM
detection sensitivity [2]: 0.6 pg/well
detection sensitivity [3]: 0.2 pg/well
detection sensitivity [4]: 0.2 pg/well
detection sensitivity [5]: 17 pg/well
detection sensitivity [6]: 18 pg/well
detection sensitivity [7]: 85 pg/well
cross reactivity [8]: < 2%
cross reactivity [9]: < 2%
cross reactivity [10]: < 2%
detection sensitivity [11]: 10 pg/well
Substance: BA-27a (antibody)
